Data on 25 molecules can be found in publication PMC8299219 (Cell, 2021).

First the molecules themselves.
B1: C83B5 (antibody, V domains shown)
VH: EVQLVQSGAEVKKPGESLRISCKGSGYSFTSYWISWVRQMPGKGLEWMGRIDPSDSYTNYSPSFQGHVTISADKSISTAYLQWSSLKASDTAMYYCARQNYYDSSGHPDAFDIWGQGTMVTVSS
VL: not shown
B2: G32L6 (antibody, V domains shown)
VH: QVQLVQSGAEVKKPGASVKVSCKVSGYTLTELSMHWVRQAPGKGLEWMGGFDPEDGETIYAQKFQGRVTMTEDTSTDTAYMELSTLRSEDTAVYYCATAPAVAGTFENYYYYYGLDVWGQGTTVTVSS
VL: not shown
B3: C41C3 (antibody, V domains shown)
VH: QVQLQESGPGLVKPSETLSLTCTVSGGSISSYYWSWIRQPPGKGLEWIGYIYYSGSTNYNPSLKSRVTISVDTSKNQFSLKLSSVTAADTAVYYCARAAEYYDFWSGYYRNWFDPWGQGTLVTVSS
VL: not shown
B4: C81H2 (antibody, V domains shown)
VH: QVQLVQSGSELKKPGASVKVSCKASGYTFTSYAMNWVRQAPGQGLEWMGWINTNTGNPTYAQDFTGRFVFSLDTSVSTAYLQISSLKAEDTAMYYCARGSMITFGGILEPVLQFDYWGQGTLVTVSS
VL: not shown
B5: C12A8 (antibody, V domains shown)
VH: QVQLVQSGAEVKKPGASVKVSCKVSGYTLTELSMHWVRQAPGKGLEWMGGFDPEDGETIYAQKFQGRVTMTEDTSTDTAYMELSSLRSEDTAVYYCATVSWPNYYDGTLYYFDYWGQGTLVTVSS
VL: DIQMTQSPSSLSASVGDRVTITCRASQGIRNDLGWYQQKPGKAPKRLIYAASSLQSGVPSRFRGSGSGTEFTLTISSLQPEDFATYYCLQHYSYPFTFGPGTKVDIK
B6: C53E4 (antibody, V domains shown)
VH: QVQLVQSGAEVKKPGASVKVSCKASGYTYTSYGISWVRQAPGRGLEWMGWISAYNGNTNYAQKLQGRVTMTTDTSTSTAYMELRSLRSDDTAVYYCARDQGLWYYYDSSGFALDYWGQGTLVTVSS
VL: EIVLTQSPATLSLSPGERATLSCRASQSVSSYLAWYQQKPGQAPRLLIYDASNRATGIPARFSGSGSGTDFTLTISSLEPEDFAVYYCQQRSNWPRYTFGQGTKLEIK
B7: C53E6 (antibody, V domains shown)
VH: EVQLVESGGGLVKPGGSLKLSCAASGFTFSSYSMNWVRQAPGKGLEWVSSISSSSSYIYYADSVKGRFTISRDNAKNSLYLQMNSLRAEDTAVYYCARASYDFWSGQDHWFDPWGQGTLVTVSS
VL: EIVLTQSPATLSLSPGERATLSCRASQSVSSYLAWYQQKPGQAPRLLIYDASNRATGIPAKFSGSGSGTDFTLTISSLEPEDFAVYYCQQRSNWPPITFGQGTRLEIK
B8: G32A12 (antibody, V domains shown)
VH: QVQLVQSGAEVKKPGASVKVSCKASGYTFTSYYMHWVRQAPGQGLEWMGIINPSGGSTSYAQKFQGRVTMTRDTSTSTVYMELSSLRSEDTAVYYCARDPTMTTVTTLDDYYYYYGMDVWGQGTTVTVSS
VL: not shown
B9: C81G1 (antibody, V domains shown)
VH: QVQLVQSGAEVKKPGSSVKVSCKASGGTFSSYGITWVRQAPGQGLEWMGGIIPIFGTANYAQKFQGRVTITADESTSTAYMDLSSLRSEDTAVYYCAILGDDYNDVDYWGQGTLVTVSS
VL: not shown
B10: C83A8 (antibody, V domains shown)
VH: QVQLVQSGAEVKKPGSSVKISCKASGGTFSSNAISWVRQAPGQGLEWMGGIIPILTTTNYAERLQGRVTITADESTSTAYMELSSLRSEDTAVYYCASQGRKSCITVFGVVDLLCYSNGMDVWGQGTTVTVSS
VL: QSALTQPASVSGSPGQSITISCTGTSSDVGGYKYVSWYQHHPGKAPKLMIYDVSNRPSGVSNRFSGSKSGNTASLTISGLQAEDEAEYYCSSFTTSSTLVVFGGGTKLTVL
B11: C81E3 (antibody, V domains shown)
VH: QVQLVESGGGVVQPGRSLRLSCAASGFTFSSYAMHWVRQAPGKGLEWVAVISYDGSNKYYADSVKGRFTISRDNSKNTLYLQMNSLRAEDTAVYYCARVSSMDVLRYFDPLDVWGNGTTVTVSS
VL: SYELTQPPSVSVSPGQTARITCSGDALPKQYAYWYQQKPGQAPVLVIYKDSERPSGIPERFSGSSSGTTVTLTISGVQAEDEADYYCQSADSSGTYHVVFGGGTKLTVL
B12: C41N3 (antibody, V domains shown)
VH: EVQLVESGGGLVQPGRSLRLSCAASGFTFDDYAMHWVRQAPGKGLEWVSGISWQSGSIGYADSVKGRFTISRDNAKNSLYLQMNSLRAEDTALYYCAKDPGYDSSGYYYDYWGQGALVTVSS
VL: not shown
B13: C83B6 (antibody, V domains shown)
VH: EVQLVESGGGLVKPGGSLRLSCAASGFTFSSYSMNWVRQAPGKGLEWVSYISSSSSTIYYADSVKGRFTISRDNAKNSLYLQMNSLRDEDTAVYYCARDRGGYGPYYYGMDVWGQGTTVTVSS
VL: not shown
B14: C81D7 (antibody, V domains shown)
VH: not shown
VL: SYELTQPPSVSVAPGKTARITCGGNNIGSKSVHWYQQKPGQAPVLVVYDDSDRPSGIPERFSGSNSGNTATLTISRVEAGDEADYYCQVWDSSSDSWVFGGGTKLTVL
B15: C81E4 (antibody, V domains shown)
VH: QVQLVESGGGVVQPGRSLRLSCEASGFTFSNYAMHWVRQAPGKGLEWVAVISYDGSNKYYADSVKGRFTISRDNSKNTLYLQMNSLRAEDTAVYYCASCGITMVQGAHPDAFDIWGQGTMVTVSS
VL: SYELTQPPSVSVAPGKTARITCGGNNIGTKSVHWYQQKPGQAPVLVVYDDSDRPSGIPERFSGSNSGNTATLTISRVEAGDEADYYCQVWDRSSDHVLFGGGTKLTVL
B16: C81B2 (antibody, V domains shown)
VH: QVQLVQSGAEVKKPGASVKVSCKVSGYTLIELSMHWVRQAPGKGLEWMGGFDPEDGETIYAQKFQGRVTMTEDTSTDTAYMELSSLRSEDTAVYYCATGPSIAVRGWFDPWGQGTLVTVSS
VL: QSVLTQPPSVSAAPGQKVTISCSGSSSNIGNNYVSWYQQLPGTAPKLLIYENNKRPSGIPDRFSGSKSGTSATLGITGLQTGDEADYYCGTWDSSLSAGGVFGGGTKLTVL
B17: C81G10 (antibody, V domains shown)
VH: QVQLVQSGAEVKKPGASVKVSCKVSGYTLTELSIHWVRQAPGKGLEWMGGFDPEDGETIYAQKFQGRVTMTEDTSTDTAYMELSSLRSEDTAVYYCATTTVLAAASWFDPWGQGTLVTVSS
VL: QSALTQPASVSGSPGQSITISCTGTNSDVGSYNLVSWYQQHPGKAPKLMIYEGSKRPSGVSNRFSGSKSGNTASLTISGLQAEDEADYYCCSYAGSGTVVFGGGTKLTVL
B18: C81C6 (antibody, V domains shown)
VH: QVQLVQSGAEVKKPGASVKVSCKVSGYTLTELSMHWVRQAPGKGLEWMGGFDPEDGETIYAQKFQGRVTVTEDTSTDTAYMELSSLRSEDTAVYYCATSPAIAATGWLDPWGQGTLVTVSS
VL: QSALTQPASVSGSPGQSITISCTGTSSDVGSYNLVSWYQQHPGKAPKLMIYEGNKRPSGVSNRFSGSKSGNTASLTISGLQAEDEADYYCCSYAGSSTHWVFGGGTKLTVL
B19: G32L2 (antibody, V domains shown)
VH: QVQLVESGGGVVQPGTSLRLSCAASGFTFSNYDIHWVRQAPGKGLEWVAVISYDGSNKYYADSVKGRFTISRDNSKNTLYLQMNSLRAEDTAVYYCAKDLVLRYFDWLFDGPDYWGQGTLVTVSS
VL: SYELTQPPSVSVSPGQTARITCSGDALPKKYAYWYQQKSGQAPVLVIYEDSKRPSGIPERFSGSSSGTMATLTISGAQVEDEADYYCYSTDSSGNHGVFGGGTKLTVL
B20: C12D8 (antibody, V domains shown)
VH: EVQLVESGGGLVQPGGSLRLSCAASGFTFSSYWMSWVRQAPGKGLEWVANIKQDGSEKYYVDSVKGRFTISRDNAKNSLYLQMNSLRAEDTAVYYCARDDGLREPFDYWGQGTLVTVSS
VL: not shown
B21: C18D5 (antibody, V domains shown)
VH: QVQLVQSGAEVKTPGASVKVSCKASGFTFTNYDLNWVRQAPGQGLEWMGWMNPKSGDTRSAQRFQGRVTMTRDTSISTAYMEMNTLRSEDTAVYYCARGRGDYSDDDFPALYLWGQGTLVTVSS
VL: not shown
B22: C83A7 (antibody, V domains shown)
VH: QVQLQESGPGLVKPSETLSLTCTVSGGSVSSGSYYWSWIRQPPGKGLEWIGYIYYSGRTNYNPSLKSRVTISVDTSKNQFSLKLSSVTAADTAVYYCARTVITMIVGNWYFDLWGRGTLVTVSS
VL: not shown
B23: C63D4 (antibody, V domains shown)
VH: EVQLVESGGGLVQPGGSLRLSCAASGFTFSTYEMNWVRQAPGKGLEWVSYISSSGSTISYADSVKGRFTISRDNAKNSLYLQMNSLRAEDTAVYYCARDSPHYDYIWGSYRLRGAFDIWGQGTMVTVSS
VL: QSALTQPPSASGSPGQSVTISCTGTSSDVGGYNYVSWYQQHPGKAPKLMIYEVSKRPSGVPDRFSGSKSGNTASLTVSGLQAEDEADYYCSSYTGSNTLYVFGTGTKVTVL
B24: C81H5 (antibody, V domains shown)
VH: QVQLVQSGAEVRKPGASVKVSCKVSEYTLTELSIHWVRQAPGKGLEWMGGFDPEDGETIYAQKFQGRVTMTEDTSTDTAYMELSSLRSEDTAVYYCATAPAYCPGGVCPRGWFDPWGQGTLVTVSS
VL: QSALTQPRSVSGSPGQSVTISCTGTSSDVGGYNYVSWYQQHPGKAPKLMIYDVSKRPSGVPDRFSGSKSGNTASLTISGLQAEDEADYYCCSYAGSYTYVFGTGTKVTVL
B25: C93D6 (antibody, V domains shown)
VH: EVQLVESGGGLVKPGGSLRLSCAASGFTFSSYSMNWVRQAPGKGLEWVSSISSSSSYIYYADSVKGRFTISRDNAKNSLYLQMNSLRAEDTAVYYCASDLMEDYDFLSGSATSPFDYWGQGTLVTVSS
VL: not shown

The test deals with SARS-CoV-2 S ectodomain trimer, prefusion-stabilized, 2P variant (Wrapp et al., 2020) (SARS-CoV-2, Wuhan-Hu-1, UniProt P0DTC2, stabilised).
On to B1, for which the binding result is on record as “binds”.

For the molecule B2, the binding result was “binds”.

Take B3: the binding result was “binds”.

As for B4, the binding result is “binds”.

Consider B5, for which the binding result was “binds”.

On to B6, for which the binding result is recorded as “binds”.

For the molecule B7, the binding result is reported as “binds”.

For the molecule B8, the binding result is “binds”.

For the molecule B9, the binding result is reported as “binds”.

For B10, the binding result is listed as “binds”.

As for B11, the binding result was “binds”.

Consider B12, for which the binding result was “binds”.

Regarding B13, the binding result is listed as “binds”.

With B14, the binding result is “binds”.

Regarding B15, the binding result was “binds”.

B16: the binding result was “binds”.

With B17, the binding result was “binds”.

For the molecule B18, the binding result was “binds”.

As for B19, the binding result is given as “binds”.

In the case of B20, the binding result was “binds”.

For B21, the binding result is reported as “binds”.

Turning to B22, the binding result is “binds”.

With B23, the binding result was “binds”.

Regarding B24, the binding result is listed as “binds”.

Regarding B25, the binding result was “binds”.
